# Measurements taken from patent US20260234224A1 (VANDERBILT UNIVERSITY, published 2026).
# Molecular target: T1, SARS-CoV-2 RBD (SARS-CoV-2, UniProt P0DTC2 319-541)
# T1 construct: domain: RBD
# Assay: ELISA on recombinant spike subdomains
binder,measurement,value
"71281-31 (antibody, V domains shown) VH: QVQLVESGGGVVQPGRSLRLSCAASGFTFSRYGMHWVRQAPGKGLEWVAFISYDGDNKYYADSVKGRFTISRDNSKNTLYLQMDSLRTEDTAVYYCAKDPTARLGYCRGGSCYLADYWGQGTLVTVSS VL: SYVLTQPPSVSVAPAQTARITCGGNNIESKSVHWYQQKPGQAPVLVVYENSDRPSGIPERFSGSNSGNMATLTISRVEAGDEADYYCQVWESSSDHVIFGGGTKLTVL",binding result,binds
